B1: 5-hydroxytryptamine receptor 2C (Homo sapiens), P28335 (parent)
chain: MVNLRNAVHSFLVHLIGLLVWQSDISVSPVAAIVTDIFNTSDGGRFKFPDGVQNWPALSIVIIIIMTIGGNILVIMAVSMEKKLHNATNYFLMSLAIADMLVGLLVMPLSLLAILYDYVWPLPRYLCPVWISLDVLFSTASIMHLCAISLDRYVAIRNPIEHSRFNSRTKAIMKIAIVWAISIGVSVPIPVIGLRDEEKVFVNNTTCVLNDPNFVLIGSFVAFFIPLTIMVITYCLTIYVLRRQALMLLHGHTEEPPGLSLDFLKCCKRNTAEEENSANPNQDQNARRRKKKERRPRGTMQAINNERKASKVLGIVFFVFLIMWCPFFITNILSVLCEKSCNQKLMEKLLNVFVWIGYVCSGINPLVYTLFNKIYRRAFSNYLRCNYKVEKKPPVRQIPRVAATALSGRELNVNIYRHTNEPVIEKASDNEPGIEMQVENLELPVNPSSVVSERISSV
B2: Cysteinyl leukotriene receptor 2 (Homo sapiens), Q9NS75 (parent)
chain: MERKFMSLQPSISVSEMEPNGTFSNNNSRNCTIENFKREFFPIVYLIIFFWGVLGNGLSIYVFLQPYKKSTSVNVFMLNLAISDLLFISTLPFRADYYLRGSNWIFGDLACRIMSYSLYVNMYSSIYFLTVLSVVRFLAMVHPFRLLHVTSIRSAWILCGIIWILIMASSIMLLDSGSEQNGSVTSCLELNLYKIAKLQTMNYIALVVGCLLPFFTLSICYLLIIRVLLKVEVPESGLRVSHRKALTTIIITLIIFFLCFLPYHTLRTVHLTTWKVGLCKDRLHKALVITLALAAANACFNPLLYYFAGENFKDRLKSALRKGHPQKAKTKCVFPVSVWLRKETRV
B3: Inward rectifier potassium channel 4 (Homo sapiens), P48050 (parent)
chain: MHGHSRNGQAHVPRRKRRNRFVKKNGQCNVYFANLSNKSQRYMADIFTTCVDTRWRYMLMIFSAAFLVSWLFFGLLFWCIAFFHGDLEASPGVPAAGGPAAGGGGAAPVAPKPCIMHVNGFLGAFLFSVETQTTIGYGFRCVTEECPLAVIAVVVQSIVGCVIDSFMIGTIMAKMARPKKRAQTLLFSHHAVISVRDGKLCLMWRVGNLRKSHIVEAHVRAQLIKPYMTQEGEYLPLDQRDLNVGYDIGLDRIFLVSPIIIVHEIDEDSPLYGMGKEELESEDFEIVVILEGMVEATAMTTQARSSYLASEILWGHRFEPVVFEEKSHYKVDYSRFHKTYEVAGTPCCSARELQESKITVLPAPPPPPSAFCYENELALMSQEEEEMEEEAAAAAAVAAGLGLEAGSKEEAGIIRMLEFGSHLDLERMQASLPLDNISYRRESAI

Variants of: B1
Conditions: with dlg1_human DLG1, Q12959
Target sequence in this assay (Q12959 whole entry, looked up): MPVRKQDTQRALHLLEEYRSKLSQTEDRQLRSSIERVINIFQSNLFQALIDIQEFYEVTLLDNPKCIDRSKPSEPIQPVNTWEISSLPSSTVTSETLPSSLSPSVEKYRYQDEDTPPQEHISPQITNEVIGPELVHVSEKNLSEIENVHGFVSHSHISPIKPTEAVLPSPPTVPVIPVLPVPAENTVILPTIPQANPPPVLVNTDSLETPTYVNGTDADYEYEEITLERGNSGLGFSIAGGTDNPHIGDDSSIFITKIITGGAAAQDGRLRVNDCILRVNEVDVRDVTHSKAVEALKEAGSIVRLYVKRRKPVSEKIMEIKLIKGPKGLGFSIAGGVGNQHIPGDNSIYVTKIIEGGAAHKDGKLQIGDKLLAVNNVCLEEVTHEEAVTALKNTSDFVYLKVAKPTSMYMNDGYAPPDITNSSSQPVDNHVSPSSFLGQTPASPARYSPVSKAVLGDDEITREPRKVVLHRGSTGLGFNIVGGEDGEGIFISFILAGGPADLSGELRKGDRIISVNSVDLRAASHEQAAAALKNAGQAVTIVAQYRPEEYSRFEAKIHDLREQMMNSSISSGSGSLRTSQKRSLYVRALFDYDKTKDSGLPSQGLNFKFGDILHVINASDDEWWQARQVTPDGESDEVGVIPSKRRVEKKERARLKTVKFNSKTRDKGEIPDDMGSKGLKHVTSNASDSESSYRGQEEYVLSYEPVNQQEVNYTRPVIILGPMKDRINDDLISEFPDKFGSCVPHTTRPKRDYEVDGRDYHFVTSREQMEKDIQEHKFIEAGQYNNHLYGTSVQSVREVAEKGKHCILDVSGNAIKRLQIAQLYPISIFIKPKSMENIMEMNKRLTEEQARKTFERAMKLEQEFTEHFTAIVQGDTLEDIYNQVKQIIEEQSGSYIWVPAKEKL

Row | Variant | effect of a mutation on the interaction
1 | MVNLRNAVHSFLVHLIGLLVWQSDISVSPVAAIVTDIFNTSDGGRFKFPDGVQNWPALSIVIIIIMTIGGNILVIMAVSMEKKLHNATNYFLMSLAIADMLVGLLVMPLSLLAILYDYVWPLPRYLCPVWISLDVLFSTASIMHLCAISLDRYVAIRNPIEHSRFNSRTKAIMKIAIVWAISIGVSVPIPVIGLRDEEKVFVNNTTCVLNDPNFVLIGSFVAFFIPLTIMVITYCLTIYVLRRQALMLLHGHTEEPPGLSLDFLKCCKRNTAEEENSANPNQDQNARRRKKKERRPRGTMQAINNERKASKVLGIVFFVFLIMWCPFFITNILSVLCEKSCNQKLMEKLLNVFVWIGYVCSGINPLVYTLFNKIYRRAFSNYLRCNYKVEKKPPVRQIPRVAATALSGRELNVNIYRHTNEPVIEKASDNEPGIEMQVENLELPVNPSSVVSERISEV [S457E] | with no effect

Variants of: B2
Conditions: with scrib_human SCRIB
Target sequence in this assay (Q14160 whole entry): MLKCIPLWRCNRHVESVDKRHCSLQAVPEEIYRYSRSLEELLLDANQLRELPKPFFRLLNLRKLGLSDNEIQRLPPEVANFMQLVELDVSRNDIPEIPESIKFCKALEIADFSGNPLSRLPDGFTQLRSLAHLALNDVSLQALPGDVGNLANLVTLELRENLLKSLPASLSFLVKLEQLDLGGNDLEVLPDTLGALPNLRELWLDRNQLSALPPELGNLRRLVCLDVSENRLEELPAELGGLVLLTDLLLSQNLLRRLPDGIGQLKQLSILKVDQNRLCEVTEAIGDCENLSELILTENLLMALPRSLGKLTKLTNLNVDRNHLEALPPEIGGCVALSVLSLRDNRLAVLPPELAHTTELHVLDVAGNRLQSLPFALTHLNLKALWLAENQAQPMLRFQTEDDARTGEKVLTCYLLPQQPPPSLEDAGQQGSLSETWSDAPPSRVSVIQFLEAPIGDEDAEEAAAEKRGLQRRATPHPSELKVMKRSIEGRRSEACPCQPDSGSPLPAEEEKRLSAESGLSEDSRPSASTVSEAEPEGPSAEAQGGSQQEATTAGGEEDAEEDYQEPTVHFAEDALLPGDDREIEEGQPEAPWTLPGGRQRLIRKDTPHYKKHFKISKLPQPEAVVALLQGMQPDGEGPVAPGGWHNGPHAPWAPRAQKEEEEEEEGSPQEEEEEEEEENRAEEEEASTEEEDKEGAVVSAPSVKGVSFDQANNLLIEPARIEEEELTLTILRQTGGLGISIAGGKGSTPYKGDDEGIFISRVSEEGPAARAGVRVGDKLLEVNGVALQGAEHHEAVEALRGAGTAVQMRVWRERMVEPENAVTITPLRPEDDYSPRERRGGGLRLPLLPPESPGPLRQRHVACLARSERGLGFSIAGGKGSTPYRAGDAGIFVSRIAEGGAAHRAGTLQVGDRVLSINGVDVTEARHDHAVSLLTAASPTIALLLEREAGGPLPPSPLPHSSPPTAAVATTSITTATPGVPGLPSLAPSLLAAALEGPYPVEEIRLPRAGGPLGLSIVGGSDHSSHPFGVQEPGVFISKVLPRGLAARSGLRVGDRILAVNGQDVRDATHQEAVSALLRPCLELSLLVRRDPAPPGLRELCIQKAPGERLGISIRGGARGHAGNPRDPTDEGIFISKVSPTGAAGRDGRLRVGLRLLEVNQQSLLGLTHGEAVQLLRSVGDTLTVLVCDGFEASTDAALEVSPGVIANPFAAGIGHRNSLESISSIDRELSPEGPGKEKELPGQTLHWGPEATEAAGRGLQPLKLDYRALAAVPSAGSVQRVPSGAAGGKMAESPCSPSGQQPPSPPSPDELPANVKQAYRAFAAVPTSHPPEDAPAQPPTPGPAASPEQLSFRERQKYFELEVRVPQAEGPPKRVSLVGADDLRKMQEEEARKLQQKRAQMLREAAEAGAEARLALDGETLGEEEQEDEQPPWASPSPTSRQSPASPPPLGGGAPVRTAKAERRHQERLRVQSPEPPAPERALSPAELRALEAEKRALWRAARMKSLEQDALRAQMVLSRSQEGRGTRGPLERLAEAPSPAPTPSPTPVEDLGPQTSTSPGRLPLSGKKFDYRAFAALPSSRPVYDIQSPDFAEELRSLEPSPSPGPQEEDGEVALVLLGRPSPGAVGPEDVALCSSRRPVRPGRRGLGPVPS

Row | Variant | effect of a mutation on the interaction
2 | MERKFMSLQPSISVSEMEPNGTFSNNNSRNCTIENFKREFFPIVYLIIFFWGVLGNGLSIYVFLQPYKKSTSVNVFMLNLAISDLLFISTLPFRADYYLRGSNWIFGDLACRIMSYSLYVNMYSSIYFLTVLSVVRFLAMVHPFRLLHVTSIRSAWILCGIIWILIMASSIMLLDSGSEQNGSVTSCLELNLYKIAKLQTMNYIALVVGCLLPFFTLSICYLLIIRVLLKVEVPESGLRVSHRKALTTIIITLIIFFLCFLPYHTLRTVHLTTWKVGLCKDRLHKALVITLALAAANACFNPLLYYFAGENFKDRLKSALRKGHPQKAKTKCVFPVSVWLRKEERV [T344E] | disrupting interaction strength

Variants of: B2
Conditions: with dlg1_human DLG1, Q12959
Target sequence in this assay (Q12959 whole entry, looked up): as the sequence (Q12959 whole entry, looked up) above

Row | Variant | effect of a mutation on the interaction
3 | MERKFMSLQPSISVSEMEPNGTFSNNNSRNCTIENFKREFFPIVYLIIFFWGVLGNGLSIYVFLQPYKKSTSVNVFMLNLAISDLLFISTLPFRADYYLRGSNWIFGDLACRIMSYSLYVNMYSSIYFLTVLSVVRFLAMVHPFRLLHVTSIRSAWILCGIIWILIMASSIMLLDSGSEQNGSVTSCLELNLYKIAKLQTMNYIALVVGCLLPFFTLSICYLLIIRVLLKVEVPESGLRVSHRKALTTIIITLIIFFLCFLPYHTLRTVHLTTWKVGLCKDRLHKALVITLALAAANACFNPLLYYFAGENFKDRLKSALRKGHPQKAKTKCVFPVSVWLRKEERV [T344E] | disrupting interaction strength

Variants of: B3
Conditions: with scrib_human SCRIB
Target sequence in this assay (Q14160 whole entry): as the sequence (Q14160 whole entry) above

Row | Variant | effect of a mutation on the interaction
4 | MHGHSRNGQAHVPRRKRRNRFVKKNGQCNVYFANLSNKSQRYMADIFTTCVDTRWRYMLMIFSAAFLVSWLFFGLLFWCIAFFHGDLEASPGVPAAGGPAAGGGGAAPVAPKPCIMHVNGFLGAFLFSVETQTTIGYGFRCVTEECPLAVIAVVVQSIVGCVIDSFMIGTIMAKMARPKKRAQTLLFSHHAVISVRDGKLCLMWRVGNLRKSHIVEAHVRAQLIKPYMTQEGEYLPLDQRDLNVGYDIGLDRIFLVSPIIIVHEIDEDSPLYGMGKEELESEDFEIVVILEGMVEATAMTTQARSSYLASEILWGHRFEPVVFEEKSHYKVDYSRFHKTYEVAGTPCCSARELQESKITVLPAPPPPPSAFCYENELALMSQEEEEMEEEAAAAAAVAAGLGLEAGSKEEAGIIRMLEFGSHLDLERMQASLPLDNISYRREEAI [S443E] | disrupting interaction strength

Reference: IntAct's records for PubMed 30126976
